We go through three molecules from article PMC9732815 (Cell reports, 2022).

Like-named read-outs stand apart in the source and are kept apart here.

The term stoichiometry N denotes the number of molecules, sites or subunits per partner or assembly.

The data set “crystal structure” deals with the molecule itself. Briefly: crystal structure.
Data set [1] has as its target T1, Apn2Cat(D222N/E59Q) (Saccharomyces cerevisiae, UniProt P38207 1-407, E59Q;D222N).
T1 sequence: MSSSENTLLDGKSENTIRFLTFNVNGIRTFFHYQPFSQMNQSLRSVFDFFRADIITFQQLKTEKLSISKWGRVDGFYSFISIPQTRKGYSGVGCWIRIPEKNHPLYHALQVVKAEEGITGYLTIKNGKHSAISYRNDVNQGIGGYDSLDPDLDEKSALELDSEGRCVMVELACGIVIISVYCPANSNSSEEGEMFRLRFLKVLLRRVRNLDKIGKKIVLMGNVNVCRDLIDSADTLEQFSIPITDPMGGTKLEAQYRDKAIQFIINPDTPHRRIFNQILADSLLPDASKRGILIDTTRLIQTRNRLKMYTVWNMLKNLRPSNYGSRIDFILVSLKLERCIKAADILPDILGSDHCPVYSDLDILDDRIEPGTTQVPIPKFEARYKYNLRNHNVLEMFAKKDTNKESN
Briefly: X-ray crystallography.

Data set [2] has as its target T1, Apn2Cat(D222N/E59Q). Briefly: X-ray crystallography. The source holds these as a separate data set.

B1: Recombinant S. cerevisiae Apn2^Cat (residues 1–407) (domain or fragment, UniProt P38207 1-407, looked up)
chain: MSSSENTLLDGKSENTIRFLTFNVNGIRTFFHYQPFSQMNQSLRSVFDFFRADIITFQELKTEKLSISKWGRVDGFYSFISIPQTRKGYSGVGCWIRIPEKNHPLYHALQVVKAEEGITGYLTIKNGKHSAISYRNDVNQGIGGYDSLDPDLDEKSALELDSEGRCVMVELACGIVIISVYCPANSNSSEEGEMFRLRFLKVLLRRVRNLDKIGKKIVLMGDVNVCRDLIDSADTLEQFSIPITDPMGGTKLEAQYRDKAIQFIINPDTPHRRIFNQILADSLLPDASKRGILIDTTRLIQTRNRLKMYTVWNMLKNLRPSNYGSRIDFILVSLKLERCIKAADILPDILGSDHCPVYSDLDILDDRIEPGTTQVPIPKFEARYKYNLRNHNVLEMFAKKDTNKESN
Turning to B1, the “stoichiometry N” value in “crystal structure” came out at 2.

B2: duplex 2 (strand A + strand B) (dsDNA)
DNA 1: TCCGAAATTTCGG
DNA 2: CCGAAATTTCGGA
modifications: five phosphorothioate bonds at the 3' end of each strand (A TCCGAAAT*T*T*C*G*G; B CCGAAATT*T*C*G*G*A)
On to B2, for which, in the data set with Apn2Cat(D222N/E59Q) [1], the binding result was “binds”.

B3: duplex 1 (strand A self-annealed) (dsDNA)
DNA 1: TCCGAAATTTCGG
DNA 2: TCCGAAATTTCGG
modifications: five phosphorothioate bonds at the 3' end of each strand (TCCGAAAT*T*T*C*G*G)
For the molecule B3, the binding result in the data set with Apn2Cat(D222N/E59Q) [2] was “binds”.
